Experiments:
FOLR1 = molecular target: T1, FOLR1 (UniProt P15328 25-234); assay: immunoprecipitation, immunoblot with commercial FOLR1 antibody (FIG. 14C)
T1 construct: also called folate receptor alpha

[1] = molecular target: T2, Chi-G4S-DR5 (chimeric DR5: human DR5 extracellular domain, G4S linker, mouse DR5 transmembrane and … (chimeric: human DR5 ECD, mouse DR5 TM …)); assay: flow cytometry on Chi-G4S-DR5 stable 4T1 cells (FIG. 15A)
T2 construct: Stably expressed on murine 4T1 cells; also called Chimeric human-mouse DR5 G4S

T1 sequence (P15328 25-234 limits assumed): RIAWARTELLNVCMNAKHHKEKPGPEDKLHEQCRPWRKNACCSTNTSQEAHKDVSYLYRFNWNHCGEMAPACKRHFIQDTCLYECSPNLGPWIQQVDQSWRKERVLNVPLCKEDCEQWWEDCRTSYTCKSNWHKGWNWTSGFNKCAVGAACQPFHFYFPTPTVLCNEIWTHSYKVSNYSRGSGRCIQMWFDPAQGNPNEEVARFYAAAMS

| binding result (FOLR1) | binding result [1] | Binder |
| --- | --- | --- |
| binds |  | Farletuzumab (antibody, V domains shown, also called clinical anti-FOLR1, farletuzumab) VH: EVQLVESGGGVVQPGRSLRLSCSASGFTFSGYGLSWVRQAPGKGLEWVAMISSGGSYTYYADSVKGRFAISRDNAKNTLFLQMDSLRPEDTGVYFCARHGDDPAWFAYWGQGTPVTVSS VL: DIQLTQSPSSLSASVGDRVTITCSVSSSISSNNLHWYQQKPGKAPKPWIYGTSNLASGVPSRFSGSGSGTDYTFTISSLQPEDIATYYCQQWSSYPYMYTFGQGTKVEIKR |
|  | binds | Tigatuzumab (antibody, human IgG1, kappa, L234A L235A, V domains shown, also called clinical tigatuzumab antibody) VH: EVQLVESGGGLVQPGGSLRLSCAASGFTFSSYVMSWVRQAPGKGLEWVATISSGGSYTYYPDSVKGRFTISRDNAKNTLYLQMNSLRAEDTAVYYCARRGDSMITTDYWGQGTLVTVSS VL: DIQMTQSPSSLSASVGDRVTITCKASQDVGTAVAWYQQKPGKAPKLLIYWASTRHTGVPSRFSGSGSGTDFTLTISSLQPEDFATYYCQQYSSYRTFGQGTKVEIKR |

Source: patent US20230391881A1 (UNIVERSITY OF VIRGINIA PATENT FOUNDATION, published 2023)
